Biological target: human EphA2 receptor on human cardiac stem cells (hCSCs) (human, UniProt P29317 24-976)
Assay: cell-based or functional assay

Sequence of human EphA2 receptor on human cardiac stem cells (hCSCs) (P29317 24-976 limits assumed): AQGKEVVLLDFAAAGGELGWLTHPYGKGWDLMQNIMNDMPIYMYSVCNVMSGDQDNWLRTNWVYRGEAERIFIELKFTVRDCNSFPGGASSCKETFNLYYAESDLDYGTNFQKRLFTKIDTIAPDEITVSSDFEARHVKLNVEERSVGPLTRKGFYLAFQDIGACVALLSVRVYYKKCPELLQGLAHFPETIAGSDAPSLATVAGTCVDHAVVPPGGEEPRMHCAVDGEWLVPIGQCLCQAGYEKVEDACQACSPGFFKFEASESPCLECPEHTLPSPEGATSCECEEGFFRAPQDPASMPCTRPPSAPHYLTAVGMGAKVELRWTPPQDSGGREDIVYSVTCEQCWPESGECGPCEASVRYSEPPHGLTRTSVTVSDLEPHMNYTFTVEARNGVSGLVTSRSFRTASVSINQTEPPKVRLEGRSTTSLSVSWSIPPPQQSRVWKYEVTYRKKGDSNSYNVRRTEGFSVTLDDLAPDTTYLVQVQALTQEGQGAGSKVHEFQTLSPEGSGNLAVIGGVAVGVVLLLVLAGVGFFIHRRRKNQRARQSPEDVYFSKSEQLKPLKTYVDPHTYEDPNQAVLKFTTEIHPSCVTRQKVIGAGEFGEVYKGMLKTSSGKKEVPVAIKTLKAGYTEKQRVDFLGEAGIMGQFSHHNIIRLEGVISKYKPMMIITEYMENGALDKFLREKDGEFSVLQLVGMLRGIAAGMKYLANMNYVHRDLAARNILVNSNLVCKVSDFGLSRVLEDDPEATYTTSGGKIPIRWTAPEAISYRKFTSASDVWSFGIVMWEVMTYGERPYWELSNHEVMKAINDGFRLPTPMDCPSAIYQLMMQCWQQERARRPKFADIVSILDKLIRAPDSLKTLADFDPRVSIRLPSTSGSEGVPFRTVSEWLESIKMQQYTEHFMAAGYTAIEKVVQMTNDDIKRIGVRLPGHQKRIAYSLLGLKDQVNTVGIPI

B1: human ephrin A1-Fcy chimeric protein (ephrin A1-Fc) (Fc fusion, UniProt P20827 19-182, looked up, not shown: a dimerising Fc or GST)
chain: DRHTVFWNSSNPKFRNEDYTIHVQLNDYVDIICPHYEDHSVADAAMEQYILYLVEHEEYQLCQPQSKDQVRWQCNRPSAKHGPEKLSEKFQRFTPFTLGKEFKEGHSYYYISKPIHQHEDRCLRLKVTVSGKITHSPQAHDNPQEKRLAADDPEVRVLHSIGHS
speed of locomotion of hCSCs within the myocardium (two-photon microscopy): 2 fold

— patent US20120288481A1 (BRIGHAM AND WOMEN S HOSPITAL, published 2012)
